Source: patent US20110135573A1, “METALLOPROTEINASE 9 AND METALLOPROTEINASE 2 BINDING PROTEINS” (DYAX CORP., priority 2009, published 2011)

Molecular target: T1, mouse MMP-2 (Mus musculus, UniProt P33434)
T1 construct: purchased R&D Systems 924-MP-010
Experiment: Enzyme inhibition assay (single point inhibition, IC50/Ki,app), substrate M-2350
Assay type: biochemical
Details: Table 10
Method: 343 unique sFabs from the anti-MMP-9/-2 M237-D02 affinity maturation campaign were discovered by phage display, produced in small scale (6 mL cultures in deep 24-well plates) and screened to select inhibitors with sub-nanomolar potency against the human enzymes and at least single-digit nanomolar potency toward the mouse orthologues. […] Isolates which appeared potent against both human and mouse MMP-2 were then subjected to IC50 analysis against hMMP-9. Sub-nanomolar inhibitors of hMMP-9 were further tested by IC50 analysis against mMMP-9 and h/m MMP-2, if sufficient small-scale sFab material was available. Thirteen potential h/m MMP-9/-2 sFab inhibitors were then produced in medium scale (250 mL cultures in flasks) and retested for h/m MMP-9 and h/m MMP-2 inhibition. Five potential lead candidates were reformatted as IgGs and retested in enzyme inhibition assays.
Human MMP-9 (Biomol #SE-244), mouse MMP-9 (R&D Systems #909-MM-010), human MMP-2 (Biomol #SE-237) and mouse MMP-2 (R&D Systems #924-MP-010) were tested at final concentrations of 1 nM, 0.25-0.4 nM, 2.5 nM and 0.2 nM, respectively. Target enzymes were incubated with inhibitor for two hours at 30° C. in reaction buffer (50 mM Tris-HCl pH 7.5, 150 mM NaCl, 5 mM CaCl2, 0.05% Brij-35) in a total volume of 90 μL using a white 96 well plate (Costar). Reactions contained 5 μL of small-scale sFab stock solution (average concentration of 500 nM) for single point inhibition analysis or a concentration series of sFab/IgG for IC50 Ki,app determinations. Commercially available anti-MMP-9 antibodies (Millipore mAb 13415 and R&D Systems polyclonal IgG #AB911) were tested by IC50 analyses using 100 nM and 500 nM as the highest inhibitor concentrations, respectively. An anti-MMP-2 antibody (R&D Systems polyclonal IgG #AF902) was similarly tested with 200 nM as the highest inhibitor concentration. Reactions were initiated by the addition of 10 μL of a 10× concentrated stock of substrate, Mca-Lys-Pro-Leu-Gly-Leu-Dap(Dnp)-Ala-Arg-NH2, (Bachem M-2350), at final concentration of 10 μM and monitored at 30° C. in a Molecular Devices' Gemini fluorescence plate reader. The excitation and emission wavelengths were set at 328 nm and 393 nm, respectively. Kinetic data were acquired by the increase in fluorescence, and initial rates for each condition were plotted against the total inhibitor concentration. Reactions were performed in duplicates and all data replicates were plotted in a single graph and fit to the following equation^1:
Where A=initial rate observed at each inhibitor concentration; Ao=initial rate observed in the absence of inhibitor; Ainh=initial rate observed for the enzyme inhibitor complex; Inh=concentration of inhibitor; E=total enzyme concentration (treated as a floated parameter); and Ki,app=apparent equilibrium inhibition constant.

T1 sequence (P33434 110-662): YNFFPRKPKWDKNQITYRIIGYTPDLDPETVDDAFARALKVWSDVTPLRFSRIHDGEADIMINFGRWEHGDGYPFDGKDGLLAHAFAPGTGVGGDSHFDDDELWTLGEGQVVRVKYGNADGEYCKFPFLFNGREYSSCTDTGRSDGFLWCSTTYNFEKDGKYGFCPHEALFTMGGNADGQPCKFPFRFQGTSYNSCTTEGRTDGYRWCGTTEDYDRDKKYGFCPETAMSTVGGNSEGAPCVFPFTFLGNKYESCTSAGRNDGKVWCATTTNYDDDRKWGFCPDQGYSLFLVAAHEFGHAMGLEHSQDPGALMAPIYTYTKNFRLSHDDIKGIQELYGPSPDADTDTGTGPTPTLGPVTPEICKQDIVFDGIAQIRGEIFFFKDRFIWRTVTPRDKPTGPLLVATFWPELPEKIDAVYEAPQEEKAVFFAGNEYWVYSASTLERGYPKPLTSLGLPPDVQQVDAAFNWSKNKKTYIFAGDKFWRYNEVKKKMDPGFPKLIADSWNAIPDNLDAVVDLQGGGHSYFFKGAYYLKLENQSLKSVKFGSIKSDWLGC

Ki (medium-scale sFab)	Ki (small-scale sFab)	Molecule
30 nM	30 nM	M0299-A12: affinity matured variant of M237-D02, sFab (antibody, V domains shown) VH: EVQLLESGGGLVQPGGSLRLSCAASGFTFSHYPMWWVRQAPGKGLEWVSYISSSGGGTFYADSVKGRFTISRDNSKNTLYLQMNSLRAEDTAVYYCAKDRAYGDYVGWNGFDYWGQGTLVTVSS VL: QDIQMTQSPATLSLSPGERATLSCRASQSISSFLAWYQQKPGQAPRLLIYDASYRATGIPARFSGSGSGTDFTLTISSLEPEDYAVYYCQQRGNWPITFGQGTRLEIK
15 nM	15 nM	M0275-E12: affinity matured variant of M237-D02, sFab (antibody, V domains shown) VH: EVQLLESGGGLVQPGGSLRLSCAASGFTFSHYDMWWVRQAPGKGLEWVSVIYSSGGFTGYADSVKGRFTISRDNSKNTLYLQMNSLRAEDTAVYYCAKDRAYGDYVGWNGFDYWGQGTLVTVSS VL: QDIQMTQSPATLSLSPGERATLSCRASQSISSFLAWYQQKPGQAPRLLIYDASYRATGIPARFSGSGSGTDFTLTISSLEPEDYAVYYCQQRGNWPITFGQGTRLEIK
25 nM	25 nM	M0301-D12: affinity matured variant of M237-D02, sFab (antibody, V domains shown) VH: EVQLLESGGGLVQPGGSLRLSCAASGFTFSMYDMWWVRQAPGKGLEWVSVIYSSGGYTSYADSVKGRFTISRDNSKNTLYLQMNSLRAEDTAVYYCAKDRAYGDYVGWNGFDYWGQGTLVTVSS VL: QDIQMTQSPATLSLSPGERATLSCRASQSISSFLAWYQQKPGQAPRLLIYDASYRATGIPARFSGSGSGTDFTLTISSLEPEDYAVYYCQQRGNWPITFGQGTRLEIK
32 nM	32 nM	M0273-A11: affinity matured variant of M237-D02, sFab (antibody, V domains shown) VH: EVQLLESGGGLVQPGGSLRLSCAASGFTFSRYDMWWVRQAPGKGLEWVSVISPSGGATFYADSVKGRFTISRDNSKNTLYLQMNSLRAEDTAVYYCAKDRAYGDYVGWNGFDYWGQGTLVTVSS VL: QDIQMTQSPATLSLSPGERATLSCRASQSISSFLAWYQQKPGQAPRLLIYDASYRATGIPARFSGSGSGTDFTLTISSLEPEDYAVYYCQQRGNWPITFGQGTRLEIK
18 nM	18 nM	M0273-C10: affinity matured variant of M237-D02, sFab (antibody, V domains shown) VH: EVQLLESGGGLVQPGGSLRLSCAASGFTFSFYPMWWVRQAPGKGLEWVSYIYPSGGATFYADSVKGRFTISRDNSKNTLYLQMNSLRAEDTAVYYCAKDRAYGDYVGWNGFDYWGQGTLVTVSS VL: QDIQMTQSPATLSLSPGERATLSCRASQSISSFLAWYQQKPGQAPRLLIYDASYRATGIPARFSGSGSGTDFTLTISSLEPEDYAVYYCQQRGNWPITFGQGTRLEIK
59 nM	59 nM	M0273-B10: affinity matured variant of M237-D02, sFab (antibody, V domains shown) VH: EVQLLESGGGLVQPGGSLRLSCAASGFTFSKYAMIWVRQAPGKGLEWVSWIPPSGGYTSYADSVKGRFTISRDNSKNTLYLQMNSLRAEDTAVYYCAKDRAYGDYVGWNGFDYWGQGTLVTVSS VL: QDIQMTQSPATLSLSPGERATLSCRASQSISSFLAWYQQKPGQAPRLLIYDASYRATGIPARFSGSGSGTDFTLTISSLEPEDYAVYYCQQRGNWPITFGQGTRLEIK
2.7 nM	2.7 nM	M0274-G08: affinity matured variant of M237-D02, sFab (antibody, V domains shown) VH: EVQLLESGGGLVQPGGSLRLSCAASGFTFSVYDMWWVRQAPGKGLEWVSVIYPSGGATYYADSVKGRFTISRDNSKNTLYLQMNSLRAEDTAVYYCAKDRAYGDYVGWNGFDYWGQGTLVTVSS VL: QDIQMTQSPATLSLSPGERATLSCRASQSISSFLAWYQQKPGQAPRLLIYDASYRATGIPARFSGSGSGTDFTLTISSLEPEDYAVYYCQQRGNWPITFGQGTRLEIK
2.2 nM	2.2 nM	M0307-F04: affinity matured variant of M237-D02, sFab (antibody, V domains shown) VH: EVQLLESGGGLVQPGGSLRLSCAASGFTFSLYDMWWVRQAPGKGLEWVSVIYSSGGYTGYADSVKGRFTISRDNSKNTLYLQMNSLRAEDTAVYYCAKDRAYGDYVGWNGFDYWGQGTLVTVSS VL: QDIQMTQSPATLSLSPGERATLSCRASQSISSFLAWYQQKPGQAPRLLIYDASYRATGIPARFSGSGSGTDFTLTISSLEPEDYAVYYCQQRGNWPITFGQGTRLEIK
3.7 nM	3.7 nM	M0276-F11: affinity matured variant of M237-D02, sFab (antibody, V domains shown) VH: EVQLLESGGGLVQPGGSLRLSCAASGFTFSWYDMWWVRQAPGKGLEWVSVIYSSGGPTFYADSVKGRFTISRDNSKNTLYLQMNSLRAEDTAVYYCAKDRAYGDYVGWNGFDYWGQGTLVTVSS VL: QDIQMTQSPATLSLSPGERATLSCRASQSISSFLAWYQQKPGQAPRLLIYDASYRATGIPARFSGSGSGTDFTLTISSLEPEDYAVYYCQQRGNWPITFGQGTRLEIK
4.2 nM	4.2 nM	M0256-D11: affinity matured variant of M237-D02, sFab (antibody, V domains shown) VH: EVQLLESGGGLVQPGGSLRLSCAASGFTFSHYDMWWVRQAPGKGLEWVSVIYSSGGPTFYADSVKGRFTISRDNSKNTLYLQMNSLRAEDTAVYYCAKDRAYGDYVGWNGFDYWGQGTLVTVSS VL: QDIQMTQSPATLSLSPGERATLSCRASQSISSFLAWYQQKPGQAPRLLIYDASYRATGIPARFSGSGSGTDFTLTISSLEPEDYAVYYCQQRGNWPITFGQGTRLEIK
21 nM	21 nM	M0301-A09: affinity matured variant of M237-D02, sFab (antibody, V domains shown) VH: EVQLLESGGGLVQPGGSLRLSCAASGFTFSYYDMWWVRQAPGKGLEWVSVIYPSGGYTAYADSVKGRFTISRDNSKNTLYLQMNSLRAEDTAVYYCAKDRAYGDYVGWNGFDYWGQGTLVTVSS VL: QDIQMTQSPATLSLSPGERATLSCRASQSISSFLAWYQQKPGQAPRLLIYDASYRATGIPARFSGSGSGTDFTLTISSLEPEDYAVYYCQQRGNWPITFGQGTRLEIK
46 nM	46 nM	M0272-H08: affinity matured variant of M237-D02, sFab (antibody, V domains shown) VH: EVQLLESGGGLVQPGGSLRLSCAASGFTFSAYDMWWVRQAPGKGLEWVSVIYPSGGTTFYADSVKGRFTISRDNSKNTLYLQMNSLRAEDTAVYYCAKDRAYGDYVGWNGFDYWGQGTLVTVSS VL: QDIQMTQSPATLSLSPGERATLSCRASQSISSFLAWYQQKPGQAPRLLIYDASYRATGIPARFSGSGSGTDFTLTISSLEPEDYAVYYCQQRGNWPITFGQGTRLEIK
5.4 nM	5.4 nM	M0275-D03: affinity matured variant of M237-D02, sFab (antibody, V domains shown) VH: EVQLLESGGGLVQPGGSLRLSCAASGFTFSQYDMWWVRQAPGKGLEWVSVIYPSGTTFYADSVKGRFTISRDNSKNTLYLQMNSLRAEDTAVYYCAKDRAYGDYVGWNGFDYWGQGTLVTVSS VL: QDIQMTQSPATLSLSPGERATLSCRASQSISSFLAWYQQKPGQAPRLLIYDASYRATGIPARFSGSGSGTDFTLTISSLEPEDYAVYYCQQRGNWPITFGQGTRLEIK
22 nM	22 nM	M0273-G07: affinity matured variant of M237-D02, sFab (antibody, V domains shown) VH: EVQLLESGGGLVQPGGSLRLSCAASGFTFSHYDMWWVRQAPGKGLEWVSVIYPSGGPTYYADSVKGRFTISRDNSKNTLYLQMNSLRAEDTAVYYCAKDRAYGDYVGWNGFDYWGQGTLVTVSS VL: QDIQMTQSPATLSLSPGERATLSCRASQSISSFLAWYQQKPGQAPRLLIYDASYRATGIPARFSGSGSGTDFTLTISSLEPEDYAVYYCQQRGNWPITFGQGTRLEIK
